Measurements reported in PMC9637641.

Key:
OG488-TFPIα-BR [1] = test: fluorescence polarisation; steady-state fluorescence anisotropy; FV species or APCi titrated (0–100 nM) into 25 nM OG488-TFPIα-BR and 50 μM PCPS vesicles in HBS/Ca2+/PEG, pH 7.4 (20 mM Hepes, 150 mM NaCl, 5 mM CaCl2, 0.1% PEG-8000), 25 °C; fit to a model for tight binding
OG488-TFPIα-BR [2] = target: OG488-TFPIα-BR
FV-BR fragment (human) = FV-BR fragment (human) (UniProt P12259)
Sequence of FV-BR fragment (human) (P12259 979-1036): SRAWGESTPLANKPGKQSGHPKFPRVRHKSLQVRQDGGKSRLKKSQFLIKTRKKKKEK

Sequence of Human FVa (P12259 29-737): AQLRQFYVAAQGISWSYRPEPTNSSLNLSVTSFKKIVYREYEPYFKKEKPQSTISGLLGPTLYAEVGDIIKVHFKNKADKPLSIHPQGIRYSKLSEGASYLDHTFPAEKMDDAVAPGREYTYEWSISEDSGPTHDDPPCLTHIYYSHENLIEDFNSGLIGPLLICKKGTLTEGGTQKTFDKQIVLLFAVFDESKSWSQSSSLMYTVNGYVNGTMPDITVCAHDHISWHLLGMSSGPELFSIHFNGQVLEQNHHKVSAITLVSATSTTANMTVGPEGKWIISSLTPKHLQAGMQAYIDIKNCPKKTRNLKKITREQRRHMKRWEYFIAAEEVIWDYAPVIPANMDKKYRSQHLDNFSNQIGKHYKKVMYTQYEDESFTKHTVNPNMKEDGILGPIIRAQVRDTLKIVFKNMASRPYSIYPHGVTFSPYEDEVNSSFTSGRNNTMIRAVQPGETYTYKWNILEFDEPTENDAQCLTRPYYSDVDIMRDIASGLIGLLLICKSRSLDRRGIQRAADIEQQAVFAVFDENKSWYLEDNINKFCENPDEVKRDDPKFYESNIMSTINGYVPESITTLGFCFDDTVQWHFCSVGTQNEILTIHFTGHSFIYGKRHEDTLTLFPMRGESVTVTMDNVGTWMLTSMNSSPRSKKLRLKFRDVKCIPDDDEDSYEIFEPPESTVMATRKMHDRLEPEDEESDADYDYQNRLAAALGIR
Sequence of Human FVa (P12259 1574-2224): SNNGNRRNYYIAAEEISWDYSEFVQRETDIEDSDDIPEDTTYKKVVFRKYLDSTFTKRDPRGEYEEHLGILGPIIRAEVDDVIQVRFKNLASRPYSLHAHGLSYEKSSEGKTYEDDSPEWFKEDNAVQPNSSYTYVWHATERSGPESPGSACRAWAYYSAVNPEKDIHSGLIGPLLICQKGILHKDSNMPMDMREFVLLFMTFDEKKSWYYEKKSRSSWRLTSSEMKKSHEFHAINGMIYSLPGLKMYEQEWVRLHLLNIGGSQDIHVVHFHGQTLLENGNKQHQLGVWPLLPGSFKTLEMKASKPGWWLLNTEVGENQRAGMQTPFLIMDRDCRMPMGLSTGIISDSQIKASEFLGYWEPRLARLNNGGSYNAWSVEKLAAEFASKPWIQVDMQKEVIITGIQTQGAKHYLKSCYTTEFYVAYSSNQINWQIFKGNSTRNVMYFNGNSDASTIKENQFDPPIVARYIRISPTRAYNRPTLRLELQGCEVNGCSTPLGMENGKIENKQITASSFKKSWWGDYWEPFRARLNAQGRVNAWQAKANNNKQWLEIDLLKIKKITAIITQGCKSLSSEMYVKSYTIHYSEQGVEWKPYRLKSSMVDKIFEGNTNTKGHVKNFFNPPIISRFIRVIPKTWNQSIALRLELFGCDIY

Substance	Kd (OG488-TFPIα-BR [1])	stoichiometry N (OG488-TFPIα-BR [1])	Reduced fold change of inactivation by APC, +TFPIα-BR (kobs no BR divided by kobs +BR; % peak thrombin in TGA; 20 nM FV species, 250 nM BR fragment, 1 nM APC) (OG488-TFPIα-BR [2])	Reduced fold change of inactivation by APC, +FV-BR (kobs no BR divided by kobs +BR; % peak thrombin in TGA; 20 nM FV species, 250 nM BR fragment, 1 nM APC) (FV-BR fragment (human))
FV-810-R306Q/R506Q	2.46 nM	1.18 mol/mol	–	–
Human FVa (from UniProt P12259 29-737; P12259 1574-2224) (complex)	–	–	–	0.9 fold
FV-short (natural protein)	–	–	–	15.7 fold

The remaining substances from weak to strong by Kd (OG488-TFPIα-BR [1]), led by results:

Kd (OG488-TFPIα-BR [1])	stoichiometry N (OG488-TFPIα-BR [1])	Reduced fold change of inactivation by APC, +TFPIα-BR (kobs no BR divided by kobs +BR; % peak thrombin in TGA; 20 nM FV species, 250 nM BR fragment, 1 nM APC) (OG488-TFPIα-BR [2])	Reduced fold change of inactivation by APC, +FV-BR (kobs no BR divided by kobs +BR; % peak thrombin in TGA; 20 nM FV species, 250 nM BR fragment, 1 nM APC) (FV-BR fragment (human))	Substance
2.17 nM	1.78 mol/mol	–	–	FV-s46 (from UniProt P12259 29-990; P12259 1037-2224)
2.15 nM	1.44 mol/mol	–	–	FV-810-R306Q
1.78 nM	1.29 mol/mol	17 fold	17 fold	FV-810
1.72 nM	1.43 mol/mol	–	–	FV-810-R506Q
